Assays:
[1] = target: RuvA (bound to Holliday junction DNA) (E. coli) (UniProt P0A809); test: single-molecule fluorescence imaging in zero mode waveguides (counting of Cy5 photobleaching steps); 400 nM RuvA with 40 nM biotinylated Cy3-Holliday junction DNA held by streptavidin in the nanoholes, unbound washed out; 400 nM Cy5-RuvB added; 20 mM HEPES-KOH pH 8.0, 10 mM MgCl2; 25 ± 2 °C; holes with a single DNA; step counts fitted for the 42% labeling ratio; 1 mM ATPγS
[2] = target: RuvA (bound to Holliday junction DNA) (E. coli) (UniProt P0A809); test: single-molecule fluorescence imaging in zero mode waveguides (counting of Cy5 photobleaching steps); 400 nM RuvA with 40 nM biotinylated Cy3-Holliday junction DNA held by streptavidin in the nanoholes, unbound washed out; 400 nM Cy5-RuvB added; 20 mM HEPES-KOH pH 8.0, 10 mM MgCl2; 25 ± 2 °C; holes with a single DNA; step counts fitted for the 42% labeling ratio; 0.5 mM ADP and 0.5 mM ATPγS
[3] = target: RuvA (bound to Holliday junction DNA) (E. coli) (UniProt P0A809); test: single-molecule fluorescence imaging in zero mode waveguides (counting of Cy5 photobleaching steps); 400 nM RuvA with 40 nM biotinylated Cy3-Holliday junction DNA held by streptavidin in the nanoholes, unbound washed out; 400 nM Cy5-RuvB added; 20 mM HEPES-KOH pH 8.0, 10 mM MgCl2; 25 ± 2 °C; holes with a single DNA; step counts fitted for the 42% labeling ratio; 1 mM ADP
[4] = target: RuvA (bound to Holliday junction DNA) (E. coli) (UniProt P0A809); test: single-molecule fluorescence imaging in zero mode waveguides (counting of Cy5 photobleaching steps); 400 nM RuvA with 40 nM biotinylated Cy3-Holliday junction DNA held by streptavidin in the nanoholes, unbound washed out; 400 nM Cy5-RuvB added; 20 mM HEPES-KOH pH 8.0, 10 mM MgCl2; 25 ± 2 °C; holes with a single DNA; step counts fitted for the 42% labeling ratio; no nucleotide
[5] = target: RuvA (bound to Holliday junction DNA) (E. coli) (UniProt P0A809)

UniProt P0A809, sequence (P0A809 whole entry): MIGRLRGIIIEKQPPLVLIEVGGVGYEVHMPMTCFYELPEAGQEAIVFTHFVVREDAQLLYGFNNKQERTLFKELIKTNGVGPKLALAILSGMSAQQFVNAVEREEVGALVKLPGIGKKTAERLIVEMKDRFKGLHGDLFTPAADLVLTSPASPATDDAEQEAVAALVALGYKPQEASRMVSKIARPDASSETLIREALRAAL
RuvB, sequence (P0A812 whole entry): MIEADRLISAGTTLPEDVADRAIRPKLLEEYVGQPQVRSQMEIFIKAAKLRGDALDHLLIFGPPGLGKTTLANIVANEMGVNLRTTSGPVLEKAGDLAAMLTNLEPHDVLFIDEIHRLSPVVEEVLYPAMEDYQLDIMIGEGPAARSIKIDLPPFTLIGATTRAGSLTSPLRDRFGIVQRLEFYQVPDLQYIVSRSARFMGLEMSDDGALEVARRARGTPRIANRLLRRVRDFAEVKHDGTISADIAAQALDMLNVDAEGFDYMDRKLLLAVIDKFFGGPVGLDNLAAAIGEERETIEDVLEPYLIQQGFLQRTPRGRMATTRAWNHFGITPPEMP

Substance “Cy5-labeled RuvB-S39C (from UniProt P0A812 1-336) (enzyme)” has a % of Holliday junction DNA (with RuvA) that interacted with RuvB (fit, monomer model) [1] of 92%, a % of RuvA-Holliday junction DNA complexes with 0 RuvB dimers bound (fit, dimer model, Cy5 at random) [1] of 11% and a % of RuvA-Holliday junction DNA complexes with 0 RuvB dimers bound (fit, dimer model, one Cy5 per labelled dimer) [1] of 23%. It also gave a % of RuvA-Holliday junction DNA complexes with 0 RuvBs bound (fit, monomer model) [1] of 8%, a % of RuvA-Holliday junction DNA complexes with 1 RuvB dimers bound (fit, dimer model, Cy5 at random) [1] of 36% and a % of RuvA-Holliday junction DNA complexes with 1 RuvB dimers bound (fit, dimer model, one Cy5 per labelled dimer) [1] of 32%. It also gave a % of RuvA-Holliday junction DNA complexes with 1 RuvBs bound (fit, monomer model) [1] of 12%, a % of RuvA-Holliday junction DNA complexes with 2 RuvB dimers bound (fit, dimer model, Cy5 at random) [1] of 53% and a % of RuvA-Holliday junction DNA complexes with 2 RuvB dimers bound (fit, dimer model, one Cy5 per labelled dimer) [1] of 27%. For the same substance, the % of RuvA-Holliday junction DNA complexes with 2 RuvBs bound (fit, monomer model) [1] was 18%, the % of RuvA-Holliday junction DNA complexes with 3 RuvB dimers bound (fit, dimer model, Cy5 at random) [1] was 0% and the % of RuvA-Holliday junction DNA complexes with 3 RuvB dimers bound (fit, dimer model, one Cy5 per labelled dimer) [1] was 14%. For the same substance, the % of RuvA-Holliday junction DNA complexes with 3 RuvBs bound (fit, monomer model) [1] was 19%, the % of RuvA-Holliday junction DNA complexes with 4 RuvB dimers bound (fit, dimer model, Cy5 at random) [1] was 0% and the % of RuvA-Holliday junction DNA complexes with 4 RuvB dimers bound (fit, dimer model, one Cy5 per labelled dimer) [1] was 4%. It also gave a % of RuvA-Holliday junction DNA complexes with 4 RuvBs bound (fit, monomer model) [1] of 31%, a % of RuvA-Holliday junction DNA complexes with 5 RuvB dimers bound (fit, dimer model, Cy5 at random) [1] of 0% and a % of RuvA-Holliday junction DNA complexes with 5 RuvB dimers bound (fit, dimer model, one Cy5 per labelled dimer) [1] of 0%. For the same substance, the % of RuvA-Holliday junction DNA complexes with 5 RuvBs bound (fit, monomer model) [1] was 12%, the % of RuvA-Holliday junction DNA complexes with 6 RuvB dimers bound (fit, dimer model, Cy5 at random) [1] was 0% and the % of RuvA-Holliday junction DNA complexes with 6 RuvB dimers bound (fit, dimer model, one Cy5 per labelled dimer) [1] was 0%. It also gave a % of RuvA-Holliday junction DNA complexes with 6 RuvBs bound (fit, monomer model) [1] of 0%, a % of Holliday junction DNA (with RuvA) that interacted with RuvB (fit, dimer model of Table 2) [2] of 97% and a % of Holliday junction DNA (with RuvA) that interacted with RuvB (fit, monomer model) [2] of 98%. For the same substance, the % of RuvA-Holliday junction DNA complexes with 0 RuvB dimers bound (fit, dimer model, Cy5 at random) [2] was 3%, the % of RuvA-Holliday junction DNA complexes with 0 RuvB dimers bound (fit, dimer model, one Cy5 per labelled dimer) [2] was 14% and the % of RuvA-Holliday junction DNA complexes with 0 RuvBs bound (fit, monomer model) [2] was 2%. For the same substance, the % of RuvA-Holliday junction DNA complexes with 1 RuvB dimers bound (fit, dimer model, Cy5 at random) [2] was 24%, the % of RuvA-Holliday junction DNA complexes with 1 RuvB dimers bound (fit, dimer model, one Cy5 per labelled dimer) [2] was 29% and the % of RuvA-Holliday junction DNA complexes with 1 RuvBs bound (fit, monomer model) [2] was 5%. It also gave a % of RuvA-Holliday junction DNA complexes with 2 RuvB dimers bound (fit, dimer model, Cy5 at random) [2] of 70%, a % of RuvA-Holliday junction DNA complexes with 2 RuvB dimers bound (fit, dimer model, one Cy5 per labelled dimer) [2] of 33% and a % of RuvA-Holliday junction DNA complexes with 2 RuvBs bound (fit, monomer model) [2] of 8%. The % of RuvA-Holliday junction DNA complexes with 3 RuvB dimers bound (fit, dimer model, Cy5 at random) [2] was 3%, the % of RuvA-Holliday junction DNA complexes with 3 RuvB dimers bound (fit, dimer model, one Cy5 per labelled dimer) [2] was 19% and the % of RuvA-Holliday junction DNA complexes with 3 RuvBs bound (fit, monomer model) [2] was 31%. The % of RuvA-Holliday junction DNA complexes with 4 RuvB dimers bound (fit, dimer model, Cy5 at random) [2] was 0%, the % of RuvA-Holliday junction DNA complexes with 4 RuvB dimers bound (fit, dimer model, one Cy5 per labelled dimer) [2] was 4% and the % of RuvA-Holliday junction DNA complexes with 4 RuvBs bound (fit, monomer model) [2] was 37%. The % of RuvA-Holliday junction DNA complexes with 5 RuvB dimers bound (fit, dimer model, Cy5 at random) [2] was 0%, the % of RuvA-Holliday junction DNA complexes with 5 RuvB dimers bound (fit, dimer model, one Cy5 per labelled dimer) [2] was 1% and the % of RuvA-Holliday junction DNA complexes with 5 RuvBs bound (fit, monomer model) [2] was 14%. For the same substance, the % of RuvA-Holliday junction DNA complexes with 6 RuvB dimers bound (fit, dimer model, Cy5 at random) [2] was 0%, the % of RuvA-Holliday junction DNA complexes with 6 RuvB dimers bound (fit, dimer model, one Cy5 per labelled dimer) [2] was 0% and the % of RuvA-Holliday junction DNA complexes with 6 RuvBs bound (fit, monomer model) [2] was 3%. It also gave a % of Holliday junction DNA (with RuvA) that interacted with RuvB (fit, monomer model) [3] of 90%, a % of RuvA-Holliday junction DNA complexes with 0 RuvB dimers bound (fit, dimer model, Cy5 at random) [3] of 11% and a % of RuvA-Holliday junction DNA complexes with 0 RuvB dimers bound (fit, dimer model, one Cy5 per labelled dimer) [3] of 26%. For the same substance, the % of RuvA-Holliday junction DNA complexes with 0 RuvBs bound (fit, monomer model) [3] was 10%, the % of RuvA-Holliday junction DNA complexes with 1 RuvB dimers bound (fit, dimer model, Cy5 at random) [3] was 48% and the % of RuvA-Holliday junction DNA complexes with 1 RuvB dimers bound (fit, dimer model, one Cy5 per labelled dimer) [3] was 35%. It also gave a % of RuvA-Holliday junction DNA complexes with 1 RuvBs bound (fit, monomer model) [3] of 10%, a % of RuvA-Holliday junction DNA complexes with 2 RuvB dimers bound (fit, dimer model, Cy5 at random) [3] of 41% and a % of RuvA-Holliday junction DNA complexes with 2 RuvB dimers bound (fit, dimer model, one Cy5 per labelled dimer) [3] of 26%. The % of RuvA-Holliday junction DNA complexes with 2 RuvBs bound (fit, monomer model) [3] was 21%, the % of RuvA-Holliday junction DNA complexes with 3 RuvB dimers bound (fit, dimer model, Cy5 at random) [3] was 0% and the % of RuvA-Holliday junction DNA complexes with 3 RuvB dimers bound (fit, dimer model, one Cy5 per labelled dimer) [3] was 13%. The % of RuvA-Holliday junction DNA complexes with 3 RuvBs bound (fit, monomer model) [3] was 30%, the % of RuvA-Holliday junction DNA complexes with 4 RuvB dimers bound (fit, dimer model, Cy5 at random) [3] was 0% and the % of RuvA-Holliday junction DNA complexes with 4 RuvB dimers bound (fit, dimer model, one Cy5 per labelled dimer) [3] was 0%. For the same substance, the % of RuvA-Holliday junction DNA complexes with 4 RuvBs bound (fit, monomer model) [3] was 29%, the % of RuvA-Holliday junction DNA complexes with 5 RuvB dimers bound (fit, dimer model, Cy5 at random) [3] was 0% and the % of RuvA-Holliday junction DNA complexes with 5 RuvB dimers bound (fit, dimer model, one Cy5 per labelled dimer) [3] was 0%. For the same substance, the % of RuvA-Holliday junction DNA complexes with 5 RuvBs bound (fit, monomer model) [3] was 0%, the % of RuvA-Holliday junction DNA complexes with 6 RuvB dimers bound (fit, dimer model, Cy5 at random) [3] was 0% and the % of RuvA-Holliday junction DNA complexes with 6 RuvB dimers bound (fit, dimer model, one Cy5 per labelled dimer) [3] was 0%. For the same substance, the % of RuvA-Holliday junction DNA complexes with 6 RuvBs bound (fit, monomer model) [3] was 0%, the % of Holliday junction DNA (with RuvA) that interacted with RuvB (fit, monomer model) [4] was 77% and the % of RuvA-Holliday junction DNA complexes with 0 RuvB dimers bound (fit, dimer model, Cy5 at random) [4] was 35%. The % of RuvA-Holliday junction DNA complexes with 0 RuvB dimers bound (fit, dimer model, one Cy5 per labelled dimer) [4] was 52%, the % of RuvA-Holliday junction DNA complexes with 0 RuvBs bound (fit, monomer model) [4] was 23% and the % of RuvA-Holliday junction DNA complexes with 1 RuvB dimers bound (fit, dimer model, Cy5 at random) [4] was 65%. The % of RuvA-Holliday junction DNA complexes with 1 RuvB dimers bound (fit, dimer model, one Cy5 per labelled dimer) [4] was 38%, the % of RuvA-Holliday junction DNA complexes with 1 RuvBs bound (fit, monomer model) [4] was 37% and the % of RuvA-Holliday junction DNA complexes with 2 RuvB dimers bound (fit, dimer model, Cy5 at random) [4] was 0%. The % of RuvA-Holliday junction DNA complexes with 2 RuvB dimers bound (fit, dimer model, one Cy5 per labelled dimer) [4] was 10%, the % of RuvA-Holliday junction DNA complexes with 2 RuvBs bound (fit, monomer model) [4] was 40% and the % of RuvA-Holliday junction DNA complexes with 3 RuvB dimers bound (fit, dimer model, Cy5 at random) [4] was 0%. For the same substance, the % of RuvA-Holliday junction DNA complexes with 3 RuvB dimers bound (fit, dimer model, one Cy5 per labelled dimer) [4] was 0%, the % of RuvA-Holliday junction DNA complexes with 3 RuvBs bound (fit, monomer model) [4] was 0% and the % of RuvA-Holliday junction DNA complexes with 4 RuvB dimers bound (fit, dimer model, Cy5 at random) [4] was 0%. It also gave a % of RuvA-Holliday junction DNA complexes with 4 RuvB dimers bound (fit, dimer model, one Cy5 per labelled dimer) [4] of 0%, a % of RuvA-Holliday junction DNA complexes with 4 RuvBs bound (fit, monomer model) [4] of 0% and a % of RuvA-Holliday junction DNA complexes with 5 RuvB dimers bound (fit, dimer model, Cy5 at random) [4] of 0%. The % of RuvA-Holliday junction DNA complexes with 5 RuvB dimers bound (fit, dimer model, one Cy5 per labelled dimer) [4] was 0%, the % of RuvA-Holliday junction DNA complexes with 5 RuvBs bound (fit, monomer model) [4] was 0% and the % of RuvA-Holliday junction DNA complexes with 6 RuvB dimers bound (fit, dimer model, Cy5 at random) [4] was 0%. For the same substance, the % of RuvA-Holliday junction DNA complexes with 6 RuvB dimers bound (fit, dimer model, one Cy5 per labelled dimer) [4] was 0% and the % of RuvA-Holliday junction DNA complexes with 6 RuvBs bound (fit, monomer model) [4] was 0%.
Work on “RuvB (from UniProt P0A812 1-336) (enzyme)” yielded a ratio of fluorescent spots of Cy3-Holliday junction DNA to nanoholes after addition of 400 nM RuvB with 1 mM ATP and 5 min at 25 °C (about 90% before the addition); loss of spots by branch migration [5] of 16%.

— publication PMC4677358
